Fewer inactive variants are shown than the library holds.
B1: TPR 5TU (parent)
chain: GGAUCUUCUCGAUCUAACAAAAAAGACAAAUCUGCCACAAAGCUUGAGAGCAUCUUCGGAUGCAGAGGCGGCAGCCUUCGGUGGCGCGAUAGCGCCAACGUUCUCAACUAUGACACGCAAAACGCGUGCUCCGUUGAAUGGAGUUUAUCAUG

Variants of: B1
Experiment: polymerase ribozyme fitness, log enrichment relative to wild type (log ratio); higher = more active; in vitro selection for triplet polymerase activity
Outline: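 Only genotypes with ≥10 input reads and ≥1 read per output were kept after Illumina sequencing of input and output libraries. These libraries were PCR-built, transcribed mutants of each subunit of a heterodimeric triplet polymerase ribozyme, each put through one triplicate in vitro selection round with frozen incubation at −7 °C, gel excision of extended constructs, streptavidin-bead capture and RT-PCR. Fitness is a logarithmic ratio of genotype enrichment to wild-type enrichment, from inverse-variance-weighted replicate averages, with the logarithm in base 2.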

Variant | polymerase ribozyme fitness (log ratio)
A49U G59U | -0.317
A49U A73G | -2.09
C51G U53C U77C C95A | ≤ -4.2
C51U A60G A66C U82C G94A U109A G136A A138C | ≤ -4.2
A52C C96U | -1.77
G50C G65C C87U | -4.13
G50A C99A U145A | -3.7
A49G U61A G71A U90C G94A A119G | ≤ -4.2
G50C C93G C99G G126U | ≤ -4.2
G50C C75G | ≤ -4.2
A49U C85U U148A | ≤ -4.2
G50C A52G G62A G74U G86C C116U | ≤ -4.2
A49U U56A C75U C108A U111G U146G | ≤ -4.2
A52C G92U | -1.12
G50C C51U C54G C87U | ≤ -4.2
C51U G70A A91C A97C U144C | ≤ -4.2
A49U U61C G70A G92U | ≤ -4.2
C51U A60G G86A | -1.75
A49U A91G U130A A138U | ≤ -4.2
A49U A52G | -1.71
A52C A73U C85A C103A | ≤ -4.2

Variant | polymerase ribozyme fitness (log ratio)
G50U G58A G84U C105U G133A G141C | ≤ -4.2
A52C U145G | -1.17
G50A C75U C76U U77A C96A A110G | ≤ -4.2
A49U G84A G136U | -3.29
G50A A106C | -2.72
A52G G58A A66U U77G G94A C99G A107G | ≤ -4.2
A52C U56C G84U | -4.01
G50A C96U C125G | -2.14
C51U C96A A121C U134A | -3.19
A52G A119G | -0.813
A52C U78A C96A U144G | ≤ -4.2
A52C C87A G88U U135C | ≤ -4.2
G50C C85A U144G | ≤ -4.2
G50U C76A G126U U148G | ≤ -4.2
A52G G58A C72A G83U C96U | ≤ -4.2
G50U G74A C93U A106C U148C | ≤ -4.2
A52C A115G | -2.09
A52G G59A C75U | -0.737
A52C C87U A91U C116U G128U | ≤ -4.2
C51U C57A G84A U109G C123A | -1.74
A52C G88A A113U A121C | ≤ -4.2

Variant | polymerase ribozyme fitness (log ratio)
A52G C93U U101C C105U | -2.43
G50A C95G A115U | ≤ -4.2
A49U C93A C103U A119U | ≤ -4.2
G50U C85G | -3.51
C51U A142C | -0.909
A52G C105A | -0.578
G50A C76A C87A A97G C118U G141C | ≤ -4.2
G50A C85U | -1.67
C51A A91G C95U A97G A119U | ≤ -4.2
C51U C85A G143C | -2.7
G50A C87U C99U U146A | -3.96
G50A G58A U78A G94A G141U | ≤ -4.2
G50C A89G A107C C123G | ≤ -4.2
G50U G92C | -0.0562
A52C U148G | ≤ -4.2
G50U A97G | -0.0233
C51U A89U G92C C129U | -2.18
C51A U55A G94A C125A | -3.04
A52C C103U | -0.611
A52G G59C A60C C96G G126A A142U | ≤ -4.2
G50A U53A G58C C79U A121G U134A U139G | ≤ -4.2

Variant | polymerase ribozyme fitness (log ratio)
G50C U56G A64G G83A C105G U109G | ≤ -4.2
G50A C116U A121U C132U U144G | -1.82
C51G A60G A73G C123G | -3.71
A49G U135C U145C | -2.6
G50C G74A G92U | ≤ -4.2
A52C U102A | -1.68
G50C A52C C79A C116G C125G C132G | ≤ -4.2
G50U U144A | -0.478
G50A C57A G58C U77C G88C U139A | ≤ -4.2
A49U U55A C96A | -1.06
A52C A91C | ≤ -4.2
C51G C72A C79A G94A | ≤ -4.2
A52C A66C C69A C87G G133U | ≤ -4.2
A52C A138G | -3.62
G50A G65A U102C | -4.1
G50C A52C C118G | -3.55
G50U U130A | -2.51
A52C G58U C75A C93A | ≤ -4.2
C51U C87A A91U U144G | ≤ -4.2
G50A U56A C95U | -1.99

Source: the RNAGym collection of RNA variant scans (doi:10.1073/pnas.2313332121)
